The values below come from US20230416356A1 (SCOUT BIO, published 2023).

In experiment [1] the target is T1, human IL-31 (human, UniProt Q6EBC2 24-164).
T1 construct: also called hIL-31
T1 sequence (looked up): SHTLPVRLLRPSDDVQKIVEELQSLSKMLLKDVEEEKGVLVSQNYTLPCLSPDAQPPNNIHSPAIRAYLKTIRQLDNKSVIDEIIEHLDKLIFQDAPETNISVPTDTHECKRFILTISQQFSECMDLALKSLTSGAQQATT
The experiment in a line: ELISA, antigen coated.

Experiment [2] addresses T2, Recombinant canine IL-31 (ProSpec-Tany); amino acid residues 24-159 of Accession no. NP_001159386; SEQ ID … (canine).
T2 chain: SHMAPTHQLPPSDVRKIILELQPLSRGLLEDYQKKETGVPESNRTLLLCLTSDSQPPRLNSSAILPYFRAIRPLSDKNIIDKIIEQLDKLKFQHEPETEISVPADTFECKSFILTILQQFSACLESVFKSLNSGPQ
Kind of experiment: cell-based or functional assay.

For experiment [3], the target named is T3, Canine IL-31_4xMUT_combo (SEQ ID NO: 74) (canine).
T3 construct: See note of m25; the entry already carries the substitutions, the leader and the His tag; also called all 4 residues (L29, Y32, Q33, and P40) substituted for alanine in combination
T3 chain: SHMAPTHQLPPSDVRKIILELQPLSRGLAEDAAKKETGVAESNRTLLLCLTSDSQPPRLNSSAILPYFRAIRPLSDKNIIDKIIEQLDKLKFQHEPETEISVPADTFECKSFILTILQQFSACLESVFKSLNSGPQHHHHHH
Kind of experiment: ELISA, protein coated (100 ng/well). On the procedure:
(§1) Binding to the various IL-31 proteins and peptides was assessed by ELISA. IL-31 proteins or peptides (100 ng/well) were immobilized to polystyrene microplates as capture antigen. Wells were blocked with PBS/0.05% Tween 20/1% BSA. Coated wells were incubated for 1 h at room temperature with anti-IL-31 mAbs diluted in PBS/0.05% Tween 20/1% BSA (100 μl/well). After washing, the plates were incubated with a 1/10,000 dilution […] Rabbit Anti-Dog IgG (whole molecule) (Sigma) in PBS/0.05% Tween 20/1% BSA. Plates were washed with PBS/0.05% Tween 20 and developed by the addition of TMB substrate. Development was stopped by the addition of 100 ul ELISA stop Solution (Invitrogen) and absorbance of each well was determined at an optical density (OD) of 450 nm.
Confirmation of the unique epitope targeted by RA4 mAb was performed by assessing the binding of RA4 mAb to full length canine IL-31 proteins that contained each of the 4 key residues identified above, substituted for alanine, and a version with all 4 residues substituted for alanine in combination. […] Binding of RA4 mAb and M14 mAb to each of the proteins was determined by ELISA, as detailed above. […] When all 4 residues (L29, Y32, Q33, and P40) were substituted for alanine in combination, no binding to canine IL-31 was detected. […]

Experiment [4] has as its target T4, canine IL-31 alanine-scanning peptide (residues 18-42 of SEQ ID NO:1) L29A (canine).
T4 construct: also called L29A peptide
T4 peptide: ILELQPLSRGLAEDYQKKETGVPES
Kind of experiment: ELISA on alanine-scanning peptides, normalised to the first peptide of the series. The method, then:
as §1
(§2) An alanine-scanning peptide library of the region encompassing amino acid residues 18-42 of SEQ ID NO:1 was generated ([…]; SEQ ID NO:79), consisting of 25 peptides, each with a single alanine mutation at a different residue. Binding of the RA4 mAb to each of the peptides was determined by ELISA, as detailed above.

Experiment [5] has as its target T5, canine IL-31 alanine-scanning peptide (residues 18-42 of SEQ ID NO:1) Y32A (canine).
T5 construct: See note of m18; also called Y32A peptide
T5 peptide: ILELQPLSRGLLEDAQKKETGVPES
The experiment is described as above. The method, then: as §1, §2

In experiment [6] the target is T6, canine IL-31 alanine-scanning peptide (residues 18-42 of SEQ ID NO:1) Q33A (canine).
T6 construct: See note of m18; also called Q33A peptide
T6 peptide: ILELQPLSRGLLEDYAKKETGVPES
The description is as above. On the procedure: as §1, §2

Experiment [7] deals with T7, canine IL-31 alanine-scanning peptide (residues 18-42 of SEQ ID NO:1) P40A (canine).
T7 construct: See note of m18; also called P40A peptide
T7 peptide: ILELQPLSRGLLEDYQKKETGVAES
The experiment is described as above. On the procedure: as §1, §2

For experiment [8], the target named is T8, canine IL-31 alanine-scanning peptide (residues 18-42 of SEQ ID NO:1) K35A (canine).
T8 construct: See note of m18; also called K35A peptide
T8 peptide: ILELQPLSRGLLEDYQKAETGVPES
The experiment is described as above. On the procedure: as §1, §2

Experiment [9] has as its target T9, canine IL-31 alanine-scanning peptide (residues 18-42 of SEQ ID NO:1) V39A (canine).
T9 construct: See note of m18; also called V39A peptide
T9 peptide: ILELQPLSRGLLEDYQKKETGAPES
Described as above. On the procedure: as §1, §2

Experiment [10] has as its target T10, canine IL-31 alanine-scanning peptide (residues 18-42 of SEQ ID NO:1) S42A (canine).
T10 construct: See note of m18; also called S42A peptide
T10 peptide: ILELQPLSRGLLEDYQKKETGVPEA
The experiment is described as above. On the procedure: as §1, §2

Experiment [11] deals with T2, Recombinant canine IL-31 (ProSpec-Tany; …). The experiment in a line: hybridoma screen, microarray ELISA format.

B1: chimeric monoclonal antibody RA4 (chRA4) (antibody, V domains shown)
VH: QIQLVQSGPELKKPGETVKISCKASGYTFTDYSMHWVKQAPGKGLRWMGWINTETGKTIHAEDFKGRVAFSLETSASTAYLQINNLKNEDTATYFCASGRPDYWGQGTTLTVSS
VL: DIVLSQSPASLAVSLGQRATISCRASESVEYYGTSLMQWYQQKPGQPPKLLIYAASGVESGVPARFSGSGSGTDFSLIIHPVEEDDIAMYFCQQSRKVPYTFGGGTKLEIKR
notes: also called chimeric RA4; chimeric RA4.D2 antibody
On to B1, for which the binding result in experiment [1] and in experiment [3] was “no binding” each time. Moreover, the “inhibition of canine IL-31-induced STAT-3 phosphorylation in canine DH82 cells (IC50)” value in [2] was found to be 1.5 µg/mL. The “binding as a percentage of binding to the first peptide in the series” value was below 15% in experiment [4]; below 15% in [5]; below 15% in [6]; below 15% in experiment [7]; below 50% in [8]; below 50% in experiment [9]. For the same molecule, the “binding as a percentage of binding to the first peptide in the series” value in experiment [10] was below 50%.

B2: murine monoclonal antibody RA4.D2 (antibody, V domains shown)
VH: QIQLVQSGPELKKPGETVKISCKASGYTFTDYSMHWVKQAPGKGLRWMGWINTETGKTIHAEDFKGRVAFSLETSASTAYLQINNLKNEDTATYFCASGRPDYWGQGTTLTVSS
VL: DIVLSQSPASLAVSLGQRATISCRASESVEYYGTSLMQWYQQKPGQPPKLLIYAASGVESGVPARFSGSGSGTDFSLIIHPVEEDDIAMYFCQQSRKVPYTFGGGTKLEIKR
notes: Mouse hybridoma antibody with a kappa light chain; also called murine RA4
With B2, the binding result in [11] was “binds”.
